In patent US20090130105A1 (Biogen, published 2009):

Legend:
Assay in all cases: SPR, Fab over captured mutant
[1] = molecular target: T1, hIGF-1R-Fc mutant SD104 (H464A) (human, UniProt P08069 31-933)
T1 construct: not shown: human IgG1 Fc, C-terminal tag
Procedure: (§1) Surface plasmon resonance (SPR) experiments were performed on a Biacore 3000 instrument set to 25° C. […] The antibody sensorchip surfaces were prepared by injecting each antibody (diluted 100 μg/mL in 10 mM Acetate, pH 4.0) over EDC/NHS-activated sensorchip surfaces according to the standard protocol of the manufacturer. […] Both hIGF-1R-Fc and mIGF-1R-Fc proteins oligomerize due to the incorporation of two separate homodimeric regions (IGF-1R and IgG1-Fc). […] After, completion of the receptor-Fc loading step, flow rates were elevated to 5 μl/min. […] Dissociation was measured for 7 minutes after the antibody injections were complete. Finally, the flow rate was elevated to 30 μL/min and the chip surfaces were regenerated by 2×10 μL injections of 0.1 M glycine, pH 2.

[2] = molecular target: T2, hIGF-1R-Fc mutant SD015 (H464E) (human, UniProt P08069 31-933)
T2 construct: not shown: human IgG1 Fc, C-terminal tag
Procedure: as §1

[3] = molecular target: T3, hIGF-1R-Fc mutant SD102 (E459A, S460A) (human, UniProt P08069 31-933)
T3 construct: not shown: human IgG1 Fc, C-terminal tag
Procedure: as §1

[4] = molecular target: T4, hIGF-1R-Fc mutant SD113 (E570A, I571T) (human, UniProt P08069 31-933)
T4 construct: not shown: human IgG1 Fc, C-terminal tag
Procedure: as §1

[5] = molecular target: T5, hIGF-1R-Fc mutant SD109 (Y482A, R483W) (human, UniProt P08069 31-933)
T5 construct: not shown: human IgG1 Fc, C-terminal tag
Procedure: as §1

[6] = molecular target: T6, hIGF-1R-Fc mutant SD108 (H480E) (human, UniProt P08069 31-933)
T6 construct: not shown: human IgG1 Fc, C-terminal tag
Procedure: as §1

[7] = molecular target: T7, hIGF-1R-Fc mutant SD103 (D461A, V462T) (human, UniProt P08069 31-933)
T7 construct: not shown: human IgG1 Fc, C-terminal tag
Procedure: as §1

[8] = molecular target: T8, hIGF-1R-Fc mutant SD110 (E533H) (human, UniProt P08069 31-933)
T8 construct: not shown: human IgG1 Fc, C-terminal tag
Procedure: as §1

T1 sequence (P08069 31-933 H494A): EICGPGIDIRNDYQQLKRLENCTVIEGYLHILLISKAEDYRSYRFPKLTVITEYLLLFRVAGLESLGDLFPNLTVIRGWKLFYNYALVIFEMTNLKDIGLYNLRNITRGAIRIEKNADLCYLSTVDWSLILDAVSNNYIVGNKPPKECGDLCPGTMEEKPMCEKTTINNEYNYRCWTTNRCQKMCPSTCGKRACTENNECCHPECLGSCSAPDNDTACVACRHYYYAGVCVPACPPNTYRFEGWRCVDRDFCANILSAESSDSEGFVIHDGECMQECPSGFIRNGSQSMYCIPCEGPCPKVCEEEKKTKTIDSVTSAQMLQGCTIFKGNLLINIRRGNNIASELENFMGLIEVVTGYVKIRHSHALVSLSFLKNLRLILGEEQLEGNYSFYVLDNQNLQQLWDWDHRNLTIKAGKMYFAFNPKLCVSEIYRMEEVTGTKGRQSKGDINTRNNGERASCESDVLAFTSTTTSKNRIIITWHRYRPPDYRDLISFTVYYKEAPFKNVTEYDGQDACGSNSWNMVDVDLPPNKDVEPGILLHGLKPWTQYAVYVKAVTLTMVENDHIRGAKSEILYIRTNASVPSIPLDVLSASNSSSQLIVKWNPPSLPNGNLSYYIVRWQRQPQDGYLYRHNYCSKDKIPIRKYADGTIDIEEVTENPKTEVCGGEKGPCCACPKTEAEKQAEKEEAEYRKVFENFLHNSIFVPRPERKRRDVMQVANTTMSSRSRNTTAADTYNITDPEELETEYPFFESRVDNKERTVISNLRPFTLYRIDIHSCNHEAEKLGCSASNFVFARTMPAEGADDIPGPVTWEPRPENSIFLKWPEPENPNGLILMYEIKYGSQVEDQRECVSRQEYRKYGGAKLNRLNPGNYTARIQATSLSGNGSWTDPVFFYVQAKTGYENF
T4 sequence (P08069 31-933 E600A/I601T): as the sequence (P08069 31-933 H494A) above, with A464H, E570A, I571T counted along it
T7 sequence (P08069 31-933 D491A/V492T): as the sequence (P08069 31-933 H494A) above, with D461A, V462T, A464H counted along it
T6 sequence (P08069 31-933 H510E): as the sequence (P08069 31-933 H494A) above, with A464H, H480E counted along it
T5 sequence (P08069 31-933 Y512A/R513W): as the sequence (P08069 31-933 H494A) above, with A464H, Y482A, R483W counted along it
T8 sequence (P08069 31-933 E563H): as the sequence (P08069 31-933 H494A) above, with A464H, E533H counted along it
T3 sequence (P08069 31-933 E489A/S490A): as the sequence (P08069 31-933 H494A) above, with E459A, S460A, A464H counted along it
T2 sequence (P08069 31-933 H494E): as the sequence (P08069 31-933 H494A) above, with A464E counted along it

binding result [1]: no binding (tested: up to 30 nM Fab)
binding result [2]: no binding (tested: up to 30 nM Fab)
binding result [3]: no binding (tested: up to 30 nM Fab)
binding result [4]: no binding (tested: up to 30 nM Fab)
binding result [5]: no binding (tested: up to 30 nM Fab)
binding result [6]: no binding (tested: up to 30 nM Fab)
binding result [7]: no binding (tested: up to 30 nM Fab)
binding result [8]: no binding (tested: up to 30 nM Fab)
B1: M14-C03 Fab (Fab, V domains shown)
VH: EVQLLESGGGLVQPGGSLRLSCAASGFTFSKYMMSWVRQAPGKGLEWVSYISPSGGLTWYADSVKGRFTISRDNSKNTLYLQMNSLRAEDTAVYYCARDGARGYGMDVWGQGTTVTVSS
VL: DIQMTQSPATLSLSPGERATLSCRASQSVSSYLAWYQQKPGQAPRLLIYDASNRATGIPARFSGSGSGTDFTLTISSLEPEDFAVYYCQQRSNWPPEVTFGPGTKVDIK
notes: Enzymatically derived Fab
